B1: DD-172-2-4 (group B) (ssRNA)
RNA: GGGAGACAAGAAUAAACGCUCAACGCCAGGCCCUUAUCAAGCGCGGAACGCACGACCCGUCUUUCGACAGGAGGCUCACAACAGGC
modifications: all pyrimidines 2'-F
B2: DD-172-2-20 (group B) (ssRNA)
RNA: GGGAGACAAGAAUAAACGCUCAACGCCAGGCCCUUAUCAAGCGCGGAACGCAUGACCCGUCUUUCGACAGGAGGCUCACAACAGGC
modifications: all pyrimidines 2'-F
B3: DD-172-2-17 (group A) (ssRNA)
RNA: GGGAGACAAGAAUAACGCUCAAACACAAAACAAAAUAACUUGGCCUCGGUGCUCUACGCAAUUCGACAGGAGGCUCACAACAGGC
modifications: all pyrimidines 2'-F
B4: DD-172-2-9 (group A) (ssRNA)
RNA: GGGAGACAAGAAUAAACGCUCAACACAAAACAAAAUAACCUUAGCCUCGGUGCUCUACGCAAUUCGACAGGAGGCUCACAACAGGC
modifications: all pyrimidines 2'-F

What was measured:
[1] = biological target: T1, Calf intestinal alkaline phosphatase (CIP) (UniProt P19111 P19111:20-506); assay: streptavidin plate chemiluminescence assay, SHMCK+ buffer pH 7.35, 1 mM CaCl2, 1 mM MgCl2, 37 C; details: tags: Boehringer Mannheim (Indianapolis, Ind.), 10 mg/ml; chain copies: 2
T1 sequence (P19111 20-506, one chain of several): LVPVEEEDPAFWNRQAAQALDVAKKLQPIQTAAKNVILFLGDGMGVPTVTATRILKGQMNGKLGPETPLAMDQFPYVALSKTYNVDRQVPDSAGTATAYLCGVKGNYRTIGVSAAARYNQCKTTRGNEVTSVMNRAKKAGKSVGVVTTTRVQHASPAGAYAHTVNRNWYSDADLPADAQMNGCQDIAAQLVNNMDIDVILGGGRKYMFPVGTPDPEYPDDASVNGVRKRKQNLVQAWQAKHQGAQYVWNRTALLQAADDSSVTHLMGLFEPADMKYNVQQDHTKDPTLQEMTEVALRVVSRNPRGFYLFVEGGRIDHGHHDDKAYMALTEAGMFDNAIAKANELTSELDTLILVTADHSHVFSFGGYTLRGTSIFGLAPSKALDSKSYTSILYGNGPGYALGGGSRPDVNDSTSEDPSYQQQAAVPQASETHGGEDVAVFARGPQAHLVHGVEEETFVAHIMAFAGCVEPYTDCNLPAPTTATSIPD
Method: The affinity of the initial random library and round 8 affinity enriched pool of Example 1 was performed by a plate-based assay using RNA-transcripts biotinylated on the 5′-terminus. Briefly, opaque white 96-well Lumino plates were coated with streptavidin (10 to 20 μg/well). Biotinylated RNA obtained either from the round 8 pool or the random library were added separately to individual wells of a 96-well microtiter plate (approximately 30 fMols RNA per well). After incubating for 1 hour at room temperature, wells were washed three times with […] of SHMCK+buffer. Varying concentrations of CIP, in SHMCK+buffer, were added to the wells and allowed to incubate for 1 hour at 37° C. Wells were washed four times with 200 μl SHMCK+buffer followed by the addition of a 100 μl solution consisting of 0.1 M diethanolamine pH 10, 10% volume/volume Sapphire enhancer solution (Tropix Inc., Bedford, Mass.), […] CSPD (Tropix, Inc.), 1 mM MgCl₂, and 0.02% sodium azide. After a 30 minute incubation, chemiluminescence was measured using a Berthold (Nashua, N.H.) LB 96P luminometer. Luminescence levels were integrated over one second and data were fit to a sigmoidal dose-response curve (variable slope), Y=Bottom+[(Top−Bottom)/1+10^{(Log EC50-X)(Hillslope)}] using GraphPad Prism version 2.01 (GraphPad Software; San Diego, Calif.). […]

[2] = biological target: T1, Calf intestinal alkaline phosphatase …; assay: streptavidin plate chemiluminescence assay, SHMCK+ buffer, 37 C; details: tags: Boehringer Mannheim (Indianapolis, Ind.), 10 mg/ml; chain copies: 2
Method: The affinity of the initial random library and round 8 affinity enriched pool of Example 1 was performed by a plate-based assay using RNA-transcripts biotinylated on the 5′-terminus. Briefly, opaque white 96-well Lumino plates were coated with streptavidin (10 to 20 μg/well). Biotinylated RNA obtained either from the round 8 pool or the random library were added separately to individual wells of a 96-well microtiter plate (approximately 30 fMols RNA per well). After incubating for 1 hour at room temperature, wells were washed three times with […] of SHMCK+buffer. Varying concentrations of CIP, in SHMCK+buffer, were added to the wells and allowed to incubate for 1 hour at 37° C. Wells were washed four times with 200 μl SHMCK+buffer followed by the addition of a 100 μl solution consisting of 0.1 M diethanolamine pH 10, 10% volume/volume Sapphire enhancer solution (Tropix Inc., Bedford, Mass.), […] CSPD (Tropix, Inc.), 1 mM MgCl₂, and 0.02% sodium azide. After a 30 minute incubation, chemiluminescence was measured using a Berthold (Nashua, N.H.) LB 96P luminometer. Luminescence levels were integrated over one second and data were fit to a sigmoidal dose-response curve (variable slope), Y=Bottom+[(Top−Bottom)/1+10^{(Log EC50-X)(Hillslope)}] using GraphPad Prism version 2.01 (GraphPad Software; San Diego, Calif.). Each replicate was considered individually and convergence was obtained when two consecutive iterations varied the sum of squares (relative distance of the points from the curve, 1/Y²) by less than 0.01%.

Binder	Kd [1]	Kd [2]
B1	0.13 nM	
B2		0.26 nM
B3		7.2 nM
B4		7.8 nM
